In publication PMC7802198, “A novel humanized Frizzled-7-targeting antibody enhances antitumor effects of Bevacizumab against triple-negative breast cancer via blocking Wnt/β-catenin signaling pathway” (Journal of Experimental & Clinical Cancer Research : CR, 2021):

Key:
Assay in all cases: BLI; Fortebio Octet Red96; SHH002-hu1 captured on Anti-Human Fab-CH1 2nd Generation Sensor; rhFzd1/2/5/7/8 in solution at different concentrations (rhFzd7: 6.25, 25, 100, 400 nmol/L); KB buffer (0.1% BSA + 0.05% Tween 20 in PBS, pH 7.2); KD from kd/ka
Details in all cases: both partners purified
rhFzd7 = molecular target: T1, rhFzd7 (Homo sapiens, UniProt O75084)
T1 construct: Frizzled-7, human, recombinant; the discussion says only that the recombinant human Fzd7 extracellular CRD protein was used to immunize mice; also called recombinant human Frizzled-7

rhFzd1 = molecular target: T2, rhFzd1 (Homo sapiens, UniProt Q9UP38)
T2 construct: Frizzled-1, human, recombinant
T2 sequence (Q9UP38 70-647): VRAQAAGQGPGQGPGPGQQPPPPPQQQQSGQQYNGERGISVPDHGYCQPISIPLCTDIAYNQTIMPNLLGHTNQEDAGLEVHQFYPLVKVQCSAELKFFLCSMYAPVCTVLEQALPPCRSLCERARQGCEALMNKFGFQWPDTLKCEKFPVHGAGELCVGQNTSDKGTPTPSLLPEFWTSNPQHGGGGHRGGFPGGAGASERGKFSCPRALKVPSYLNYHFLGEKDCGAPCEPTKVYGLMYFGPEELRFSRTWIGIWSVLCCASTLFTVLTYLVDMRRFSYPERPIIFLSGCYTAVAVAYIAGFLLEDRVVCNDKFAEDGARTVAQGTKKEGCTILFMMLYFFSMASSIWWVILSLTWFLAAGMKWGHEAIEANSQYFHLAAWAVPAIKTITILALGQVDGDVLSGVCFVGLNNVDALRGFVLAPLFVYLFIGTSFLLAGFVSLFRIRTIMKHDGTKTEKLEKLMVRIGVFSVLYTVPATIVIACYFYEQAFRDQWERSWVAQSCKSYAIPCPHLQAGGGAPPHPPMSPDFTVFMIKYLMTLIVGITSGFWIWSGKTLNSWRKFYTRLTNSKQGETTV

rhFzd2 = molecular target: T3, rhFzd2 (Homo sapiens, UniProt Q14332)
T3 construct: Frizzled-2, human, recombinant
T3 sequence (Q14332 24-565): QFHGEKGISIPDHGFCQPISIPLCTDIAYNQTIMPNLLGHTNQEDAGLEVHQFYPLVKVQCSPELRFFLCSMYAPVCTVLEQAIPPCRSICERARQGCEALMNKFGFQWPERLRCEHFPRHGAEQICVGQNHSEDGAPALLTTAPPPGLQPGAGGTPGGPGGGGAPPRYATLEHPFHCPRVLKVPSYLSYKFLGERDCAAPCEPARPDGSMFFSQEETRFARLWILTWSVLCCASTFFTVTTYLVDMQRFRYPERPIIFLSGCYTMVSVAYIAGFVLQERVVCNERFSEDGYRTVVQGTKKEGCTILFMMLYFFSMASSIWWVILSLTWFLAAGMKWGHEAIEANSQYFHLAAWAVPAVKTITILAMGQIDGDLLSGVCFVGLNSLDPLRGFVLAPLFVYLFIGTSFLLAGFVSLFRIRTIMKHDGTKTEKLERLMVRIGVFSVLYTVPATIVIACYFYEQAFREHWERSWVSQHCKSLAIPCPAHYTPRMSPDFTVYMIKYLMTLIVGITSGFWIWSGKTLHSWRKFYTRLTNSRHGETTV

rhFzd5 = molecular target: T4, rhFzd5 (Homo sapiens, UniProt Q13467)
T4 construct: Frizzled-5, human, recombinant
T4 sequence (Q13467 27-585): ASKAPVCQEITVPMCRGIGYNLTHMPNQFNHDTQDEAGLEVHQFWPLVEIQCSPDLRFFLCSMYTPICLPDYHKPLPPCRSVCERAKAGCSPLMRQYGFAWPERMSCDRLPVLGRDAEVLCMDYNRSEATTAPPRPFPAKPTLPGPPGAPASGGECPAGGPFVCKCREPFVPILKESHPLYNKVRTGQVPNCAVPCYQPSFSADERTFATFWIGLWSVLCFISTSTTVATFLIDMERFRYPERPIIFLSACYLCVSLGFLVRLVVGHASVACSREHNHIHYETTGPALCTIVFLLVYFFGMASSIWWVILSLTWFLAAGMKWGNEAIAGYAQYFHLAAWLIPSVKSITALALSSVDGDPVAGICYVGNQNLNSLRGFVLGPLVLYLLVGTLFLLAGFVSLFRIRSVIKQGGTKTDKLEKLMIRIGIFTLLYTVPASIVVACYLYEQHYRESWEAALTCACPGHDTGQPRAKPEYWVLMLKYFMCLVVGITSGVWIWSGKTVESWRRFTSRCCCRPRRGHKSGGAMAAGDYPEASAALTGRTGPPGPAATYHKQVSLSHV

rhFzd8 = molecular target: T5, rhFzd8 (Homo sapiens, UniProt Q9H461)
T5 construct: Frizzled-8, human, recombinant
T5 sequence (Q9H461 28-694): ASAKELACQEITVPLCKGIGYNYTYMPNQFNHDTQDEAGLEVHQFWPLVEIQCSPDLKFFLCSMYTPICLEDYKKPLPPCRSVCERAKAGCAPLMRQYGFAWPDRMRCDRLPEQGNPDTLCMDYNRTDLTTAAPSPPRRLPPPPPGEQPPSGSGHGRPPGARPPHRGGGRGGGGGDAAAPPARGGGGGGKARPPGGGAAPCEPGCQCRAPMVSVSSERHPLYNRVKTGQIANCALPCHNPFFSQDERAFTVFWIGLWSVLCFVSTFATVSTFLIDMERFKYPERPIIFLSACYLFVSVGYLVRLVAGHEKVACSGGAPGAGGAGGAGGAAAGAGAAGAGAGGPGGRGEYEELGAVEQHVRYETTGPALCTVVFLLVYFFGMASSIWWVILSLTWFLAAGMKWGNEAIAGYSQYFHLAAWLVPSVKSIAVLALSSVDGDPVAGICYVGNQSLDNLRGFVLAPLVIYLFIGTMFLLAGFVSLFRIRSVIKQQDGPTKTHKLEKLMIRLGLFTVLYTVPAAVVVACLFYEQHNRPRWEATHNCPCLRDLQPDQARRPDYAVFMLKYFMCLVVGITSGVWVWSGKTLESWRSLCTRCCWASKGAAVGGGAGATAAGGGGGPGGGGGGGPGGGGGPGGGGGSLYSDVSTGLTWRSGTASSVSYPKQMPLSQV

B1: SHH002-hu1 (antibody, V domains shown)
VH: QVQLVQSGAEVKKPGASVKMSCKASGYTFTTYTMHWVRQAPGQGLEWIGYINPRSGYTNYNQKFQGRATVTADKSTSTAYMELSSLRSEDTAVYYCARRGYFDYWGQGTTVTVSS
VL: DIQLTQSPSSLSVSVGDRATITCRASESVDDYGNTFMHWYQQKPGKAPKLLIYLASNLQSGVPSRFSGSGSRTDFTLTISSVQAEDAATYYCQQNNEDPYTFGQGTKLEIK
notes: Whole antibody of 150 kDa (HC 50 kDa, LC 25 kDa); humanization degree 98%; detected with anti-human IgG H&L; also called humanized antibody targeting Fzd7; humanized anti-Fzd7 antibody
Binder B1 has a Kd (rhFzd7) of under 1 pM, a koff (rhFzd7) of under 1e-07 s⁻¹ and a kon (rhFzd7) of 400000 M⁻¹ s⁻¹. B1: no binding (rhFzd1); no binding (rhFzd2); no binding (rhFzd5). B1: no binding (rhFzd8).
